# In IntAct's records for PubMed 12860405:
# B1: Interleukin-1 receptor-associated kinase 1 (Homo sapiens), P51617 (parent)
# chain: MAGGPGPGEPAAPGAQHFLYEVPPWVMCRFYKVMDALEPADWCQFAALIVRDQTELRLCERSGQRTASVLWPWINRNARVADLVHILTHLQLLRARDIITAWHPPAPLPSPGTTAPRPSSIPAPAEAEAWSPRKLPSSASTFLSPAFPGSQTHSGPELGLVPSPASLWPPPPSPAPSSTKPGPESSVSLLQGARPFPFCWPLCEISRGTHNFSEELKIGEGGFGCVYRAVMRNTVYAVKRLKENADLEWTAVKQSFLTEVEQLSRFRHPNIVDFAGYCAQNGFYCLVYGFLPNGSLEDRLHCQTQACPPLSWPQRLDILLGTARAIQFLHQDSPSLIHGDIKSSNVLLDERLTPKLGDFGLARFSRFAGSSPSQSSMVARTQTVRGTLAYLPEEYIKTGRLAVDTDTFSFGVVVLETLAGQRAVKTHGARTKYLKDLVEEEAEEAGVALRSTQSTLQAGLAADAWAAPIAMQIYKKHLDPRPGPCPPELGLGLGQLACCCLHRRAKRRPPMTQVYERLEKLQAVVAGVPGHSEAASCIPPSPQENSYVSSTGRAHSGAAPWQPLAAPSGASAQAAEQLQRGPNQPVESDESLGGLSAALRSWHLTPSCPLDPAPLREAGCPQGDTAGESSWGSGPGSRPTAVEGLALGSSASSSSEPPQIIINPARQKMVQKLALYEDGALDSLQLLSSSSLPGLGLEQDRQGPEESDEFQS
# partner: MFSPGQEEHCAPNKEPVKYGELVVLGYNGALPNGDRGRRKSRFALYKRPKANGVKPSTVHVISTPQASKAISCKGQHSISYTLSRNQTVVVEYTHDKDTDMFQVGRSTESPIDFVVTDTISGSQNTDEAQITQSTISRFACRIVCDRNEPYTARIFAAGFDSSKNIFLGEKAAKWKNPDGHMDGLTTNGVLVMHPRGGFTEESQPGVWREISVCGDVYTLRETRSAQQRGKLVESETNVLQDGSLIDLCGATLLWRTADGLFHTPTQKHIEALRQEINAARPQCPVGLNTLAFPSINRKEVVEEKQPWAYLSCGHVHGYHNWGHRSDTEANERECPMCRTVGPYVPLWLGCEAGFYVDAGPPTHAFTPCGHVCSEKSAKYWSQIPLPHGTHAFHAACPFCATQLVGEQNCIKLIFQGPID
# B2: Interleukin-1 receptor-associated kinase 4 (Homo sapiens), Q9NWZ3 (parent)
# chain: MNKPITPSTYVRCLNVGLIRKLSDFIDPQEGWKKLAVAIKKPSGDDRYNQFHIRRFEALLQTGKSPTSELLFDWGTTNCTVGDLVDLLIQNEFFAPASLLLPDAVPKTANTLPSKEAITVQQKQMPFCDKDRTLMTPVQNLEQSYMPPDSSSPENKSLEVSDTRFHSFSFYELKNVTNNFDERPISVGGNKMGEGGFGVVYKGYVNNTTVAVKKLAAMVDITTEELKQQFDQEIKVMAKCQHENLVELLGFSSDGDDLCLVYVYMPNGSLLDRLSCLDGTPPLSWHMRCKIAQGAANGINFLHENHHIHRDIKSANILLDEAFTAKISDFGLARASEKFAQTVMTSRIVGTTAYMAPEALRGEITPKSDIYSFGVVLLEIITGLPAVDEHREPQLLLDIKEEIEDEEKTIEDYIDKKMNDADSTSVEAMYSVASQCLHEKKNKRPDIKKVQQLLQEMTAS
# partner: B1 partner
# Variants of: B1
# Settings: with peli2_human PELI2, Q9HAT8
row,Variant,effect of a mutation on the interaction
1,K239S,disrupting interaction

# Variants of: B2
# Settings: with peli2_human PELI2, Q9HAT8
row,Variant,effect of a mutation on the interaction
1,K213A,disrupting interaction
